Consider 13 sequences from the DeepSol protein solubility set.

The nature of this series: soluble on expression in E. coli; label from the status in PepcDB or PDB records.
Consider “MSSASGLRRGHPAGGEENMTETDAFYKREMFDPAEKYKMDHRRRGIALIFNHERFFWHLTLPERRGTCADRDNLTRRFSDLGFEVKCFNDLKAEELLLKIHEVSTVSHADADCFVCVFLSHGEGNHIYAYDAKIEIQTLTGLFKGDKCHSLVGKPKIFIIQACRGNQHDVPVIPLDVVDNQTEKLDTNITEVDAASVYTLPAGADFLMCYSVAEGYYSHRETVNGSWYIQDLCEMLGKYGSSLEFTELLTLVNRKVSQRRVDFCKDPSAIGKKQVPCFASMLTKKLHFFPKSN”, for which the “soluble on expression in E. coli” value is listed as “soluble”.
With “MSLAELTALYTLTAQMKREGICRLLVLSGEEGWCFDHALKLRDALPGDWLWISPQLDAENHCSPSALQTLLGREFRHAVFDARHGFDAAAFAALSGTLKAGSWLVLLLPVWEEWENQPDADSLRWSDCPDPIATPHFVQHLKRVLTADNDAILWRQNQPFSLAHFTPRTDWHPATGAPQPEQQQLLQQLLTMPPGVAAVTAARGRGKSALAGQLISRIAGSAIVTAPAKAATDVLAQFAGEKFRFIAPDALLASDEQADWLVVDEAAAIPAPLLHQLVSRFPRTLLTTTVQGYEGTGRGFLLKFCARFPHLHRFELQQPIRWAQGCPLEKMVSEALVFNDENFTHTPQGNIVISAFEQTLWRSEPETPLKVYQLLSGAHYRTSPLDLRRMMDAPGQHFLQAAGENEIAGALWLVDEGGLSQELSQAVWAGFRRPRGNLVAQSLAAHGSNPLAATLRGRRVSRIAVHPARQREGTGRQLIAGALQYTHDLDYLSVSFGYTGELWRFWQRCGFVLVRMGNHREASSGCYTAMALLPMSDAGKQLAEREHYRLRRDAQALAQWNGEMLPVDPLNDAILSDDDWLELAGFAFAHRPLLTSLGCLLRLLQTSELALPALRGRLQKNASDAQLCTTLKLSGRKMLLVRQREEAAQALFALNEVRTERLRDRITQWQFFHEGHHHHHH” the entry was “soluble”.
With “GQNHHEVVKFMDVYQRSYCHPIETLVDIFQEYPDEIEYIFKPSCVPLMRCGGCCNDEGLECVPTEESNITMQIMRIKPHQGQHIGEMSFLQHNKCECRPKKD” the entry was “soluble”; with “MKPKVVRYLDEGEFPLAEEEALRLYRAMRRARFFDEKALTLQRQGRLGVYAPFMGQEAAQVGVALALEERDWVVPSYRESAMLLAKGLPIHTLILYWRAHPAGWRFPEGVRAVNPYIPIATQIPQAVGLALAGRYRGEDWVVATSIGDGGTSEGDFHEGLNFAAVFGAPVVFLVQNNGYAISVPKSRQMKVDYVARRAEGYGMPGVVVDGNDAFAVYLEAKKAVERARKGEGPTLLEALTYRLAPHTTSDDPSRYRSKEEEEAWRAKDPILRLRKALEGRGLWGEEAEKALLLELEEEFQRELALADEAPEPRPEEIVEHVYAEMGPDQRRAWEALRRGLHVEEVE”, “soluble”; with “MEYIPDNSDEGRIVAMTLAVALRRALASVLGVSATELGYAVRPVRLDNEQSVLAVQLYDIISGGAGFASSAPLHIEAVLKGMVKQLGCRHCDTACSECLLDSQTRHDHDQLDRKAAQAWLGEDFSHYIGLPEAEKLEHHHHHH”, “not soluble”.
As for “MAKLRPYYEESQSAYDISDDFFALFLDPTWVYTCAYFERDDMTLEEAQLAKVDLALDKLNLEPGMTLLDVGCGWGGALVRAVEKYDVNVIGLTLSRNHYERSKDRLAAIGTQRRAEARLQGWEEFEENVDRIVSFEAFDAFKKERYLTFFERSYDILPDDGRMLLHSLFTYDRRWLHEQGIALTMSDLRFLKFLRESIFPGGELPSEPDIVDNAQAAGFTIEHVQLLQQHYARTLDAWAANLQAARERAIAVQSEEVYNNFMHYLTGCAERFRRGLINVAQFTMTK”, the entry is “soluble”; as for “MMDVSGVGFPSKVPWKKMSAEELENQYCPSRWVVRLGAEEALRTYSQIGIEATTRARATRKSLLHVPYGDGEGEKVDIYFPDESSEALPFFLFFHGGYWQSGSKDESAFMVHPLTAQGVAVVIVAYGIAPKGTLDHMVDQVTRSVAFVQKRYPSNKGIYLCGHSAGAHLAAMMLLADWTKHGVTPNLRGFFLVSGVFDLEPIVYTSQNVALQLTLEDAQRNNPQLKVAQAQPVDPTCRVLVVVGQFDSPEFHRQSWEFYQVLPVQTLCQGEWKASFEELHDVDHFEIVENLTQKDNVLTQIILKTIFQ”, “soluble”.
Regarding “MSLGSTQLQLHGLLSNISSKEGTYAKLGGLYTQSLARLVAKCEDLFMGGQKKELHFNENNWSLFKLTCNKPCCDSGDAIYYCATCSEDPGSTYAVKICKAPEPKTVSYCSPSVPVHFNIQQDCGHFVASVPSSMLSSPDAPKDPVPALPTHPPAQEQDCVVVITREVPHQTASDFVRDSAASHQAEPEAYERRVCFLLLQLCNGLEHLKEHGIIHRDLCLENLLLVHCTLQAGPREKQLPRLIISNFLKAKQKPGGTPNLQQKKSQARLAPEIVSASQYRKFDEFQTGILIYELLHQPNPFEVRAQLRERDYRQEDLPPLPALSLYSPGLQQLAHLLLEADPIKRIRIGEAKRVLQCLLWGPRRELVQQPGTSEEALCGTLHNWIDMKRALMMMKFAEKAVDRRRGVELEDWLCCQYLASAEPGALLQSLKLLQEGHHHHHH”, the “soluble on expression in E. coli” value is recorded as “soluble”.
With “MSLRPFATKAEADAAVADIRARGRLIVGLDIGSNLFSFRDPITGEITGFDVDIAGEVARDIFGVPSHVEYRILSAAERVTALQKSQVDIVVKTMSITCERRKLVNFSTVYLDANQRILAPRDSPITKVSDLSGKRVCVARGTTSLRRIREIAPPPVIVSVVNWADCLVALQQREIDAVSTDDTILAGLVEEDPYLHIVGPDMADQPYGVGINLDNTGLVRFVNGTLERIRNDGTWNTLYRKWLTVLGEGHHHHHH” the entry was “soluble”; with “MGFLEDKKRTLMNLELAIREGLVDEEIIPILNKINEIDNYYTTSSCIGRVGIMEIPKDKNPKLYSRWLGKWHHYASYDELFNALKNKKEGYIVFVMNSPILHIACKDIESAKKMLELAIHSGLKASSIKSISDKRVIVEILTTYKVDTPIGEDGEIFVDNNYLKFLLDYSNSKLKRAREILMRWANRLDELKK”, “soluble”.
Turning to “MSAEVLVYRGSLVENRHRVSLALWGPEGLVAYAGDPGRVAYLRSSAKPFQALALYLTGAVERFGLTEEEVALATASHDGTPRHVEVAARFLGKLGLGPEHLVCGVHPPFSREARAALEAQGLAPTPLHHNCSGKHAGMLAAALALGAPAEGYHLPDHPVQRLNLATLEALSGARPGLATDGCSVPTFALSLARAARAFFLLADPGRAPEAYRTPLLRVREAMRRHPDLVAGPGSVDTLLMERLPVVAKRGADGYYGLALLEGPRGPLGVALKVEDGATLAREVAVVALLRALGLDPGKTPWDRPPVRNHRGLEVGHLEARLGLVWV”, the “soluble on expression in E. coli” value was “soluble”.
For the sequence “SLPNGEGLQLKENSESEGVSCHYWSLFDGHAGSGAAVVASRLLQHHITEQLQDIVDILKNSAVLPPTCLGEEPENTPANSRTLTRAASLRGGVGAPGSPSTPPTRFFTEKKIPHECLVIGALESAFKEMDLQIERERSSYNISGGCTALIVICLLGKLYVANAGDSRAIIIRNGEIIPMSSEFTPETERQRLQYLAFMQPHLLGNEFTHLEFPRRVQRKELGKKMLYRDFNMTGWAYKTIEDEDLKFPLIYGEGKKARVMATIGVTRGLGDHDLKVHDSNIYIKPFLSSAPEVRIYDLSKYDHGSDDVLILATDGLWDVLSNEEVAEAITQFLPNCDPDDPHRYTLAAQDLVMRARGVLKDRGWRISNDRLGSGDDISVYVIPLIHGNKLS”, the “soluble on expression in E. coli” value is given as “not soluble”.
As for “MSDVTNTWNERYDTEEFVYGREPNAFLAGVSAMMPPGDVLCLAEGEGRNAVFLARQGHRVLAVDASAVGLSKAARLAEEHGVRIETLTTDLADLVIEPGRWDAIVSIFCHVPPPVRRVLHRQAVAGLRPGGLFVLEAYTPAQLELRTGGPPTVELLMTLADLREELAGLEFLQAREIERDVVEGRLHTGRGAVVQIVARKPLEHHHHHH”, the entry is “soluble”.
